# Several values for one entry are separate records, joined by “and”; a condition that tells them apart may be missing. Equal values may be shown once.
# Assays:
# [1] = target: HIV-1 JR-FL gp120 (HIV-1 strain JR-FL); assay: cell-based or functional assay
# [2] = target: HIV-1 SF162 gp120 (HIV-1 strain SF162) (UniProt P19550); assay: cell-based or functional assay
# CD4 (human) = CD4 (human) (UniProt P01730); assay: cell-based or functional assay
# [3] = system: reporter viruses pseudotyped with HIV-1JR-FL envelope (U87-CD4-CCR5 cells); assay: microbe, parasite or virus in culture; format: cell-based
# [4] = system: reporter viruses pseudotyped with HIV-1SF162 envelope (U87-CD4-CCR5 cells); assay: HIV-1 pseudovirus assay, SF162 envelope; format: cell-based; details: Human immunodeficiency virus 1, U87/CD4/CCR5
# Text: A self-inactivating (SIN) vector was derived from the pNL4-3ΔEnv-luciferase vector (Dragic et al. 1996) by deleting 507 basepairs in the U3 region of the 3′ long terminal repeat (LTR) so as to remove the TATA box and transcription factor binding sites. The human cytomegalovirus promoter was inserted upstream of the luciferase (luc) gene to enable expression of luciferase following integration.
# Reporter viruses pseudotyped with HIV-1JR-FL or HIV-1SF162 envelopes were generated by cotransfection of 293T cells with the SIN vector and the appropriate pcDNA env-expressing vector as previously described (Dragic et al. 1996). […] Cultures were incubated for 72 h at 37° C. in DMEM containing 10% fetal bovine serum, […] puromycin, 0.3 mg/mL geneticin, antibiotics, and 0.5% DMSO. Luciferase activity (relative light units or RLU) was measured using. BrightGlo reagent (Promega, Madison, Wis.) according to the manufacturer's instructions.
# Experimental design and data analysis were based on the combination index (CI) method (Chou et al. 1991; Chou et al. 1984). […] The mutually exclusive CI formula was used for combinations of CCR5 inhibitors, while the mutually non-exclusive formula was utilized for combinations of inhibitors to distinct targets (Chou et al. 1991). Each test was conducted 4-12 times. Synergy, additivity and antagonism are indicated by CI<1, CI=1 and CI>1, respectively.
# [5] = system: HIV-1 Env-mediated fusion (HeLa-EnvJRFL and CEM NKR-CCR5 cells); assay: RET cell-cell fusion assay, combination testing (Part II, Example 1)
# Procedure: Serial dilutions of small molecules were conducted in DMSO. Subsequent dilutions were conducted in medium to achieve a fmal DMSO concentration in the assay of 0.5%. Peptides and mAbs were diluted in PBS in the absence of DMSO.
# Briefly, fluorescein octadecyl ester (F18; Molecular Probes, Eugene, Oreg.; 5 mg/ml in ethanol), was diluted 1:800 in DMEM labeling medium (DMEM; Invitrogen, Carlsbad, Calif.) with 10% fetal bovine serum (FBS; HyClone, Logan, Utah) and adjusted to an A506 of 0.34±10%. […] Both dyes were further diluted 2-fold by addition to cells in T75-cm^2 flasks. HeLa-EnvJRFL and CEM NKR-CCR5 cells were incubated overnight in F18- and R18-containing culture medium, respectively. The following day, medium from HeLa-EnvJRFL cells was removed and 10 ml of 0.5 mM EDTA was added and incubated at 37° C. for 5 min. EDTA was removed and the flask was returned to the incubator for another 5 min followed by striking of the flask to dislodge cells. […] Suspension CEM NKR-CCR5 cells were added directly to a separate 50-ml conical centrifuge tube. […] Ten μl of each cell type (15,000 cells) were seeded into wells of a 384-well plate. Inhibitor compounds were added immediately thereafter to bring the final well volume to 40 μl, and the plates were incubated for 4 h at 37° C. Compounds were tested individually and in combination at a fixed molar ratio or mass ratio over a range of serial dilutions.
# The “% RET” was calculated according to the following formula after subtraction of background (blank) readings:
# The “% Inhibition” was calculated according to the following formula: […]
# IC50 values were generated for all combinations as described above. Combination Index (CI) and Dose Reduction (DR) values were calculated according to the following formulas:
# Combinations with CI<1 are determined to be synergistic, whereas combinations with CI>1 are determined to be antagonistic. […]
# In this assay, effector cells are labeled with the F18 dye and target cells with the R18 dye. […] Drug susceptibility is measured by adding serial concentrations of drugs to target cells prior to addition of effector cells.
# HIV-1 = details: dose-dependent, treatment period of 10-14 days; cited from earlier work
# [6] = target: CCR5 (CC-chemokine receptor 5) (human) (UniProt P51681); assay: cell-based or functional assay
# [7] = target: CCR5 (CC-chemokine receptor 5) (human) (UniProt P51681); assay: flow cytometry competition; unlabeled PRO 140 pre-incubated with CEM.NKR-CCR5 cells, then 5 nM PRO 140-PE as competitor; MFI read-out
# [8] = target: CCR5 (CC-chemokine receptor 5) (human) (UniProt P51681); assay: flow cytometry competition; unlabeled PRO 140 pre-incubated with CEM.NKR-CCR5 cells, then 5 nM PRO 140-PE as competitor; percent cells gated read-out
# [9] = target: CCR5 (CC-chemokine receptor 5) (human) (UniProt P51681); assay: displacement of labelled ligand; PRO 140 pre-incubated with CEM.NKR-CCR5 cells, then 2 nM 3H-UK-427,857 (small molecule) as competitor; scintillation counting
molecule,measurement,setting,value
PRO 542 (CD4-IgG2) (from UniProt P01730 26-204; P01730 26-203) (Fc fusion),"IC50, HIV-1 reporter virus pseudotyped with JRFL envelope, U87-CD4-CCR5 cells",[1],0.19 nM
same,"IC90, HIV-1 reporter virus pseudotyped with JRFL envelope, U87-CD4-CCR5 cells",[1],2.9 nM
same,"IC50, HIV-1 reporter virus pseudotyped with SF162 envelope, U87-CD4-CCR5 cells",[2],0.36 nM
same,"IC90, HIV-1 reporter virus pseudotyped with SF162 envelope, U87-CD4-CCR5 cells",[2],7.1 nM
anti-CD4 mAb Leu-3A (antibody),"HIV-1 Env-mediated cell-cell fusion, RET assay",CD4 (human),500 ng/mL
"Cc1nnc(C(C)C)n1C1CC2CCC(C1)N2CC[C@H](NC(=O)C1CCC(F)(F)CC1)c1ccccc1 (stereo partly drawn) [UK-427,857, reference compound]",IC90,"[3]; HIV-1 envelope JRFL, 1st inhibitor alone",46 nM
same,IC50,"[3]; Human immunodeficiency virus 1, U87/CD4/CCR5",7.4 nM
same,IC50,[4],0.87 nM
same,IC90,[4],13 nM
same,Mean Dose Reduction (2D7),"[5]; 2D7 in combination with the labelled inhibitor, 1:1 molar ratio",2.45 ± 0.12
same,Mean CI,"[5]; PRO 140 in combination with the labelled inhibitor, 1:1 molar ratio, Combination Index at IC50",0.59 ± 0.04
same,Mean Dose Reduction (Cpd in combination),"[5]; labelled inhibitor in combination with 2D7, 1:1 molar ratio",5.73 ± 0.54
CCO/N=C(\c1ccc(Br)cc1)C1CCN(C2(C)CCN(C(=O)c3c(C)cc[n+]([O-])c3C)CC2)CC1 [SCH-C],mean reductions in HIV-1 RNA levels,HIV-1,~1 log10
"PRO 140, humanized IgG4,κ anti-CCR5 monoclonal antibody (antibody, INN chains, looked up, V domains shown) VH: EVQLVESGGGLVKPGGSLRLSCAASGYTFSNYWIGWVRQAPGKGLEWIGDIYPGGNYIRNNEKFKDKTTLSADTSKNTAYLQMNSLKTEDTAVYYCGSSFGSNYVFAWFTYWGQGTLVTVSS VL: DIVMTQSPLSLPVTPGEPASISCRSSQRLLSSYGHTYLHWYLQKPGQSPQLLIYEVSNRFSGVPDRFSGSGSGTDFTLKISRVEAEDVGVYYCSQSTHVPLTFGQGTKVEIK","IC50, HIV-1 reporter virus pseudotyped with JRFL envelope, U87-CD4-CCR5 cells",[6],2.2 nM
same,"IC50, HIV-1 reporter virus pseudotyped with SF162 envelope, U87-CD4-CCR5 cells",[6],1.3 nM
same,"IC50, PhenoSense HIV Entry assay, U87-CD4/CCR5 cells, virus DUAL",[6],0.347 µg/mL
same,"IC50, PhenoSense HIV Entry assay, U87-CD4/CCR5 cells, virus JRCSF",[6],0.574 µg/mL
same,"IC50, PhenoSense HIV Entry assay, U87-CD4/CCR5 cells, virus Panel 1 (subtype A)",[6],0.199 µg/mL
same,"IC50, PhenoSense HIV Entry assay, U87-CD4/CCR5 cells, virus Panel 2 (subtype A)",[6],0.305 µg/mL
same,"IC50, PhenoSense HIV Entry assay, U87-CD4/CCR5 cells, virus Panel 3 (subtype A)",[6],0.414 µg/mL
same,"IC50, PhenoSense HIV Entry assay, U87-CD4/CCR5 cells, virus Panel 4 (subtype A)",[6],0.508 µg/mL
same,"IC50, PhenoSense HIV Entry assay, U87-CD4/CCR5 cells, virus Panel 5 (subtype C)",[6],0.356 µg/mL
same,"IC50, PhenoSense HIV Entry assay, U87-CD4/CCR5 cells, virus Panel 6 (subtype C)",[6],0.318 µg/mL
same,"IC50, PhenoSense HIV Entry assay, U87-CD4/CCR5 cells, virus Panel 7 (subtype C)",[6],0.0955 µg/mL
same,"IC50, PhenoSense HIV Entry assay, U87-CD4/CCR5 cells, virus Panel 8 (subtype C)",[6],0.527 µg/mL
same,"IC50, PhenoSense HIV Entry assay, U87-CD4/CCR5 cells, virus Panel 9 (subtype D)",[6],0.679 µg/mL
same,"IC50, PhenoSense HIV Entry assay, U87-CD4/CCR5 cells, virus Panel 10 (subtype D)",[6],0.59 µg/mL
same,"IC50, PhenoSense HIV Entry assay, U87-CD4/CCR5 cells, virus Panel 11 (subtype D)",[6],0.365 µg/mL
same,"IC50, PhenoSense HIV Entry assay, U87-CD4/CCR5 cells, virus Panel 12 (subtype D)",[6],0.238 µg/mL
same,"IC50, PhenoSense HIV Entry assay, U87-CD4/CCR5 cells, virus Panel 13 (subtype F)",[6],0.788 µg/mL
same,"IC50, PhenoSense HIV Entry assay, U87-CD4/CCR5 cells, virus Panel 14 (subtype F)",[6],0.657 µg/mL
same,"IC50, PhenoSense HIV Entry assay, U87-CD4/CCR5 cells, virus Panel 15 (subtype F)",[6],0.332 µg/mL
same,"IC50, PhenoSense HIV Entry assay, U87-CD4/CCR5 cells, virus Panel 16 (subtype F)",[6],0.342 µg/mL
same,"IC50, PhenoSense HIV Entry assay, U87-CD4/CCR5 cells, virus Panel 17 (subtype G)",[6],0.26 µg/mL
same,"IC50, PhenoSense HIV Entry assay, U87-CD4/CCR5 cells, virus Panel 18 (subtype G)",[6],1.43 µg/mL
same,"IC50, PhenoSense HIV Entry assay, U87-CD4/CCR5 cells, virus Panel 19 (subtype G)",[6],0.384 µg/mL
same,"IC50, PhenoSense HIV Entry assay, U87-CD4/CCR5 cells, virus Panel 20 (subtype G)",[6],0.432 µg/mL
same,"IC50, PhenoSense HIV Entry assay, U87-CD4/CCR5 cells, virus Panel 21 (subtype J)",[6],0.525 µg/mL
same,"IC50, PhenoSense HIV Entry assay, U87-CD4/CCR5 cells, virus Panel 22 (subtype J)",[6],0.436 µg/mL
same,"IC50, PhenoSense HIV Entry assay, U87-CD4/CCR5 cells, virus Panel 23 (subtype J)",[6],0.269 µg/mL
same,"IC50, PhenoSense HIV Entry assay, U87-CD4/CCR5 cells, virus Panel 24 (subtype B)",[6],0.547 µg/mL
same,"IC50, PhenoSense HIV Entry assay, U87-CD4/CCR5 cells, virus Panel 25 (subtype B)",[6],0.519 µg/mL
same,"IC50, PhenoSense HIV Entry assay, U87-CD4/CCR5 cells, virus Panel 26 (subtype B)",[6],0.442 µg/mL
same,"IC50, PhenoSense HIV Entry assay, U87-CD4/CCR5 cells, virus Panel 27 (subtype B)",[6],0.575 µg/mL
same,"IC50, PhenoSense HIV Entry assay, U87-CD4/CCR5 cells, virus Panel 31 JRCSF-N43D",[6],0.67 µg/mL
same,"IC90, HIV-1 reporter virus pseudotyped with JRFL envelope, U87-CD4-CCR5 cells",[6],28 nM
same,"IC90, HIV-1 reporter virus pseudotyped with SF162 envelope, U87-CD4-CCR5 cells",[6],20 nM
same,"IC90, PhenoSense HIV Entry assay, U87-CD4/CCR5 cells, virus DUAL",[6],1.56 µg/mL
same,"IC90, PhenoSense HIV Entry assay, U87-CD4/CCR5 cells, virus JRCSF",[6],18.3 µg/mL
same,"IC90, PhenoSense HIV Entry assay, U87-CD4/CCR5 cells, virus Panel 1 (subtype A)",[6],1.69 µg/mL
same,"IC90, PhenoSense HIV Entry assay, U87-CD4/CCR5 cells, virus Panel 2 (subtype A)",[6],4.51 µg/mL
same,"IC90, PhenoSense HIV Entry assay, U87-CD4/CCR5 cells, virus Panel 3 (subtype A)",[6],3.38 µg/mL
same,"IC90, PhenoSense HIV Entry assay, U87-CD4/CCR5 cells, virus Panel 4 (subtype A)",[6],3.45 µg/mL
same,"IC90, PhenoSense HIV Entry assay, U87-CD4/CCR5 cells, virus Panel 5 (subtype C)",[6],6.52 µg/mL
same,"IC90, PhenoSense HIV Entry assay, U87-CD4/CCR5 cells, virus Panel 6 (subtype C)",[6],3.37 µg/mL
same,"IC90, PhenoSense HIV Entry assay, U87-CD4/CCR5 cells, virus Panel 7 (subtype C)",[6],0.447 µg/mL
same,"IC90, PhenoSense HIV Entry assay, U87-CD4/CCR5 cells, virus Panel 8 (subtype C)",[6],7.25 µg/mL
same,"IC90, PhenoSense HIV Entry assay, U87-CD4/CCR5 cells, virus Panel 9 (subtype D)",[6],15.3 µg/mL
same,"IC90, PhenoSense HIV Entry assay, U87-CD4/CCR5 cells, virus Panel 10 (subtype D)",[6],5.65 µg/mL
same,"IC90, PhenoSense HIV Entry assay, U87-CD4/CCR5 cells, virus Panel 11 (subtype D)",[6],4.33 µg/mL
same,"IC90, PhenoSense HIV Entry assay, U87-CD4/CCR5 cells, virus Panel 12 (subtype D)",[6],2.08 µg/mL
same,"IC90, PhenoSense HIV Entry assay, U87-CD4/CCR5 cells, virus Panel 13 (subtype F)",[6],16.7 µg/mL
same,"IC90, PhenoSense HIV Entry assay, U87-CD4/CCR5 cells, virus Panel 14 (subtype F)",[6],21.9 µg/mL
same,"IC90, PhenoSense HIV Entry assay, U87-CD4/CCR5 cells, virus Panel 15 (subtype F)",[6],5.88 µg/mL
same,"IC90, PhenoSense HIV Entry assay, U87-CD4/CCR5 cells, virus Panel 16 (subtype F)",[6],14 µg/mL
same,"IC90, PhenoSense HIV Entry assay, U87-CD4/CCR5 cells, virus Panel 17 (subtype G)",[6],2.41 µg/mL
same,"IC90, PhenoSense HIV Entry assay, U87-CD4/CCR5 cells, virus Panel 18 (subtype G)",[6],50.7 µg/mL
same,"IC90, PhenoSense HIV Entry assay, U87-CD4/CCR5 cells, virus Panel 19 (subtype G)",[6],3.51 µg/mL
same,"IC90, PhenoSense HIV Entry assay, U87-CD4/CCR5 cells, virus Panel 20 (subtype G)",[6],5.65 µg/mL
same,"IC90, PhenoSense HIV Entry assay, U87-CD4/CCR5 cells, virus Panel 21 (subtype J)",[6],6.06 µg/mL
same,"IC90, PhenoSense HIV Entry assay, U87-CD4/CCR5 cells, virus Panel 22 (subtype J)",[6],9.24 µg/mL
same,"IC90, PhenoSense HIV Entry assay, U87-CD4/CCR5 cells, virus Panel 23 (subtype J)",[6],3.3 µg/mL
same,"IC90, PhenoSense HIV Entry assay, U87-CD4/CCR5 cells, virus Panel 24 (subtype B)",[6],10.1 µg/mL
same,"IC90, PhenoSense HIV Entry assay, U87-CD4/CCR5 cells, virus Panel 25 (subtype B)",[6],12.2 µg/mL
same,"IC90, PhenoSense HIV Entry assay, U87-CD4/CCR5 cells, virus Panel 26 (subtype B)",[6],8.91 µg/mL
same,"IC90, PhenoSense HIV Entry assay, U87-CD4/CCR5 cells, virus Panel 27 (subtype B)",[6],6.5 µg/mL
same,"IC90, PhenoSense HIV Entry assay, U87-CD4/CCR5 cells, virus Panel 31 JRCSF-N43D",[6],16.1 µg/mL
same,"IC90, neutralization of primary R5 HIV-1 isolates, whole virus replication assay",[6],3 µg/mL and 4 µg/mL
same,EC50,[7],2.5 nM
same,EC90,[8],17 nM
same,EC50,[9],14 nM

# Source: US20110135634A1, “METHODS OF INHIBITING INFECTION BY DIVERSE SUBTYPES OF DRUG-RESISTANT HIV-1” (priority 2007, published 2011)
